Test: soluble on expression in E. coli; label from the status in PepcDB or PDB records

| Sequence | soluble on expression in E. coli |
| --- | --- |
| MGSDKIHHHHHHMKIVFLAPFGIRPKGTVVARMVPLAAELQALGHRVTIVAPPYTNPEDSGHTEEIRGVRLRNIRLAPGGAALSAPVMAWRMYRAAREEEPDLIHLFKPKGYGGLAAMLHLLTASRSSPLFLDTDDWEGRGGMNALHDYSPAQRLLFAFQEEWLPPRVRGVTVASRELEARIAAMGVAPERLLYLPNCVDDQPLGNGARVRARLGIDGNAPVVLLYTRFFEFSQEDLHRVFAGLSRKVPGIRFLVVGTGRNREEELLAAAARAEGFADSLHIAGWVEPDELPHWLAAGDVALYPFADTLVNRAKCPAKLTELMRAGVPVVADRVGQIAEYVEDGISGILCRPSAPDEMIARIAELLADPVRRRAVGTAGRERILSRFNWRDAAARLDAFYDNLTRRRNLA | not soluble |
| GYQCQHNLNYWRFGDYLGIGCGSHGKLSFADGRIIRTTKVKHPRGYLAAYQNMVKPYLHTEQLVADEDRPFEFFMNRFRLMEACPKQDYVDTTGLPLSTIQDTIDWALEMGYLSETETHWQITEKGKLFLNDLLEAFMAEEDEE | not soluble |
| MLDRILSIRKSRANRLRESMAKINSQIKEVDGKLDDCEQSIKESIASKQAYCASLVNLDKVSLYKYQIKNNAFDEQKQRLYEKKSSLSKEKRSLLDSQKRTKENLQHVNKSVEKLSFAIKEHYFD | not soluble |
| MIEIKDKQLTGLRFIDLFAGLGGFRLALESCGAECVYSNEWDKYAQEVYEMNFGEKPEGDITQVNEKTIPDHDILCAGFPCQAFSISGKQKGFEDSRGTLFFDIARIVREKKPKVVFMENVKNFASHDNGNTLEVVKNTMNELDYSFHAKVLNALDYGIPQKRERIYMICFRNDLNIQNFQFPKPFELNTFVKDLLLPDSEVEHLVIDRKDLVMTNQEIEQTTPKTVRLGIVGKGGQGERIYSTRGIAIGLSAYGGGIFAKTGGYLVNGKTRKLHPRECARVMGYPDSYKVHPSTSQAYKQFGNSVVINVLQYIAYNIGSSLNFKPY | soluble |
| MEGDGSDPEPPDAGEDSKSENGENAPIYCICRKPDINCFMIGCDNCNEWFHGDCIRITEKMAKAIREWYCRECREKDPKLEIRYRHKKSRERDGNERDSSEPRDEGGGRKRPVPDPDLQRRAGSGTGVGAMLARGSASPHKSSPQPLVATPSQHHQQQQQQIKRSARMCGECEACRRTEDCGHCDFCRDMKKFGGPNKIRQKCRLRQCQLRARESYKYFPSSLSPVTPSESLPRPRRPLPTQQQPQPSQKLGRIREDEGAVASSTVKEPPEATATPEPLSDEDLPLDPDLYQDFCAGAFDDHGLPWMSDTEESPFLDPALRKRAVKVKHVKRREKKSEKKVMERKEERYKRHRQKQKHKDKWKHPERADAKDPASLPQCLGPGCVRPAQPSSKYCSDDCGMKLAANRIYEILPQRIQQWQQSPCIAEEHGKKLLERIRREQQSARTRLQEMERRFHELEAIILRAKQQAVREDEESNEGDSDDTDLQIFCVSCGHPINPRVALRHMERCYAKYESQTSFGSMYPTRIEGATRLFCDVYNPQSKTYCKRLQVLCPEHSRDPKVPADEVCGCPLVRDVFELTGDFCRLPKRQCNRHYCWEKLRRAEVDLERVRVWYKLDELFEQERNVRTAMTNRAGLLALMLHQTIQHDPLTTDLRSSADR | soluble |
| MAHHHHHHMMYSRLFHESLGIVIISPSRSSASPALVIADAFYSAMRLQVMLAMPFVQPRFASIFRLLLRAVPLLPPFMATFTFRRCTSDLSRRSAMRCFTARLQLLTFETLLCGSHGVLPPPARLAAACARAKEEFALQCSTSAPPPTKLTTAVVATHLLHNNLRDAAAVLASHPCQQQVLEEVRDYVRQHPGVFSVSTLTGMLEEARCVSPAAVATFLRAAVDEFLRGSSAASTVGDEATAWDAQRENLRSLVLRHIRFYPACVSFLLGSLCAVSRGCAGDREDVIEVMQIAMRERSMNPRDFGGVLDVVWKSREPRRVAMMWAWMQHTSACWDVRAASIAIMAFSELHQMDEAVACIQRLAEADGDPTIDAQVAFVRFLGVRTPSLLRYAAQLVLHWHPSGERLWRGEPQAVGMELVKICCACGERKWAVEMLEQMVATNASVPAELEAFMLRPGAAALGEHYSASVAASKTLQELFIDVPLRLPNLGEQPALVGLLLSLGMVTNRLPEVYDALEKASLTPANFQDALDCFVTGSVVKAASPVAVLACVREAGVRTGHKVPKEMESWLQLATEM | not soluble |
| MAHHHHHHMKKKGCHSDRKHCQKHVQAELCLFILHSVLRKCPNKMVHSILQNSHGNIRKKFEISLKHETSTPAPQKRRREVLLKRKTNSKRGNRA | not soluble |

Source: the DeepSol protein solubility set
